Primed or numbered codes have the meaning given here. No end group written: not given here. FITC′ = fluorescein isothiocyanate label
T1: FEEED (Homo sapiens, not fully specified)
T1 chain: H-FEEED

B1: MBP-fused PB1-ZZ of p62 (residues 1-181) wild type (domain or fragment)
chain: not shown

Assays:
[1] = target: B1; test: FP; pH 8.0
FEEED = target: T1, FEEED; test: FP; pH 8.0
[2] = target: Flag-ZZ (ZZ-domain of p62 with the flag-tag) (human); test: FP; pH 6.0
Sequence of Flag-ZZ (ZZ-domain of p62 with the flag-tag) (human) (chain, as listed by the source): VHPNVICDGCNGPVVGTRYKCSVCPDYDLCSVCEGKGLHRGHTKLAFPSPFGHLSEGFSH

Row | Binder | Kd [1] | further results
1 | YEEEDK (also: FITC-labeled (site not given here)) [FITC-labeled N-degron peptide with tyrosine at the primary position] | 68 µM | 
2 | WEEEDK (also: FITC-labeled (site not given here)) [FITC-labeled N-degron peptide with tryptophan at the primary position] | 82 µM | 
3 | KEEEDK (also: FITC-labeled, site not given here) [FITC-labeled N-degron peptide with lysine at the primary position] | 113 µM | 
4 | B1 |  | Kd (FEEED): 169 µM
5 | REEEDK-{FITC′} [R-BiP peptide (REEEDK–FITC)] |  | Kd [2]: > 400 µM

— PMC6098011 (2018)
